From the supplement of paper PMC9170038

Tested on: MS2 coat protein
Experiment: apparent KD of MS2 coat protein; designed switch direction (-1 OFF switch, 1 ON switch): 1; higher = weaker reporter binding
In short: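 For each design, the apparent KD is the median over clusters of curves fitted to normalised cluster fluorescence. Clusters held RNA switches with common flanks, transcribed on Illumina chips by stalled E. coli RNA polymerase. These were titrated with SNAP-549-labelled MS2 coat protein, doubling from 0.7 or 1.5 nM to 3 µM, without input, with 200 uM small-molecule ligand, or with an oligonucleotide input.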

[1] = input ligand: microRNA oligo, concentration not stated
[2] = Eterna round: R95, input ligand: FMN 200 uM
[3] = Eterna round: R95, input ligand: microRNA oligo, concentration not stated
[4] = Eterna round: R95, input ligand: none

Sequence | apparent KD of MS2 coat protein (input ligand: FMN 200 uM) | apparent KD of MS2 coat protein [1] | apparent KD of MS2 coat protein (input ligand: none) | apparent KD of MS2 coat protein [2] | apparent KD of MS2 coat protein [3] | apparent KD of MS2 coat protein [4]
GGAAUAUUUACAGGAUAUGAUUUGUAAAUUCGAUCAGAAGGGUAGAUGUCUUACACGACUUGUUACAUGAGGAUCACCCAUGUU [SameState NG1 #9] (Eterna round: R96, puzzle: Same State NG 1) | 41.6 nM | 48.8 nM | 67.3 nM |  |  | 
GAGAGACGAUUAGGAUAUCCGGUGAUAAUGAUAGGAGAAGGAAUUGACAUGAGGAUCACCCAUGUGGGAAUAAUCCAGAGAGAG [Parity 24 - Jieux - Same State NG 1] (Eterna round: R96, puzzle: Same State NG 1) | 86.5 nM | 66.5 nM | 89.7 nM |  |  | 
AGGCUCAGACGAGGAUAUGAUCAUGGCGCUUCGGCGCAUACAUGAGGAUCACCCAUGUAAAGUGAUCAGAAGGCGUCUGAGCCA [SSNG2/7-A1] (Eterna round: R96, puzzle: Same State NG 2) | 12.3 nM | 14.5 nM | 14.2 nM |  |  | 
CCUAUAGCCACAGGAUAUGAGAACACGUUGAACGUACAUGAGGAUCACCCAUGUCGCCGAUCGACUUAGAAGGGUGGCCCUCGC [Eternabot solution 26] (Eterna round: R96, puzzle: Same State NG 2) | 34.4 nM | 37.9 nM | 29.4 nM |  |  | 
AGUCCAGCCUGAGCUGGACAAAAGCAUGUACAUGAGGAUCACCCAUGUCAUGUACAAGCUUUUUGCUCGUCUUAAAG [Mat - hsa-mir-208a - Mod of JL - D23] (puzzle: Sensor for hsa-mir-208a) |  |  |  | 231 nM | 18 nM | 312 nM
GGUAUUAACACAGGAUAUGCUUACGAAACGUAAGCAGAAGGGUGAACAUGAGGAUCACCCAUGUAUGUACCAGGGCGUGAGCCC [JL SSNG1 1.73] (Eterna round: R96, puzzle: Same State NG 1) | 137 nM | 510 nM | 1040 nM |  |  | 
GGUAGGUUACUACCAAUACAUGAGGAUCACCCAUGUUGUCAUGAGGAUAUGGUACCUAUUUGGUACCAGAAGGCAUGUAUAAUU [Fiskers NG3ss - 20] (Eterna round: R96, puzzle: Same State NG 3) | 49.6 nM | 59.5 nM | 62 nM |  |  | 
UUAUCCUUUUUUUACAUGAGGAUCACCCAUGUUUUUCUUACGUAGGAUAUCGUUGUUUUUUUUUACGAGAAGGACGUAGUAUGU [JR_SSND3_Sub062] (Eterna round: R96, puzzle: Same State NG 3) | 35.8 nM | 30.4 nM | 36.5 nM |  |  | 
GGACGUCAAUAUGAAUUCCACAUGAGGAUCACCCAUGUUCAUGAGGAUAUGGAUCCUAAUUGGAUCCAGAAGGCAUGGACGUCC [Fiskers NG3ss - 38] (Eterna round: R96, puzzle: Same State NG 3) | 81.9 nM | 163 nM | 194 nM |  |  | 
AACAAUCUAUCUGAGGAUAUCAUGAAAUAAACAUGAGGAUCACCCAUGUGCAGGAAAACUGUAUAUGAGAAGGCAGAUAGAUUGA [salish99_ss2_r3_046] (puzzle: Same State 2) |  |  |  | 14.8 nM | 69.2 nM | 101 nM
GGAUGAUAGACAGGAUAUUGAAUGUAAAUAGGACAAGAAGGGUCAAUGAUAUAAACGACCAGUUACAUGAGGAUCACCCAUGUU [JR_SSNG1_Sub023] (Eterna round: R96, puzzle: Same State NG 1) | 37.1 nM | 30.5 nM | 38.9 nM |  |  | 
GAGAGAGGGUGAGGAUAUUUAGUGAUAAUGAUAGGAGAAGGCACAGACAUGAGGAUCACCCAUGUGGGAAUAAUCCAGAGAGAG [Parity 9 - Jieux - Same State NG 1] (Eterna round: R96, puzzle: Same State NG 1) | 199 nM | 31.9 nM | 186 nM |  |  | 
UGGAUCUAGGCUUGCCUGGGUCCAUGCUGACAUGAGGAUCACCCAUGUGCAUCCUACAAGCUUUUUGCUUGUCGGCU (puzzle: Sensor for hsa-mir-208a) |  |  |  | 178 nM | 194 nM | 221 nM
UGGUACAUGGGAGGAUAUGGAGUGAUGACAUGAGGAUCACCCAUGUUAAAUAUGCCGAGAGGCAACUAGAAGGCCCAUGUACCU [JL SSNG1 3.98] (Eterna round: R96, puzzle: Same State NG 2) | 22.3 nM | 298 nM | 418 nM |  |  | 
UUAUCUCAGACAUGAGGAUCACCCAUGUUUUUUUGUCUUUGACAGGAUAUAGUUGUUUCGUUUUACUAGAAGGGUCAUUUUAUU [JR_SSNG3_Sub024] (Eterna round: R96, puzzle: Same State NG 3) | 20.3 nM | 20.8 nM | 29.8 nM |  |  | 
GCUACAUGAGGAUCACCCAUGUGUGCGUGGGAGUGAGUGGCUUAGGAUAUCUAUGAUUUUAGUUGAGAGAAGGAGGAUUGCUGU [SS-NG3-LRO10] (Eterna round: R96, puzzle: Same State NG 3) | 193 nM | 140 nM | 175 nM |  |  | 

Sequence | apparent KD of MS2 coat protein (input ligand: FMN 200 uM) | apparent KD of MS2 coat protein [1] | apparent KD of MS2 coat protein (input ligand: none) | apparent KD of MS2 coat protein [2] | apparent KD of MS2 coat protein [3] | apparent KD of MS2 coat protein [4]
AGUCCAGCCUGAGCUGGACAAAAGCAUGUACAUGAGGAUCACCCAUGUCAUGUACAAGCUUUUUGCUCGUCUUAAUA [JL zipper 49] (Eterna round: R96, puzzle: Sensor for hsa-mir-208a) | 600 nM | 16.2 nM | 471 nM |  |  | 
AGUCCAGCAAGAGCUGGACAAAAGCAUGUACAUGAGGAUCACCCAUGUUCAUGUACAAGCUUUUUGCUCGUCUUAAA [Mat - hsa-mir-208a - Mod of JL - 57] (puzzle: Sensor for hsa-mir-208a) |  |  |  | 413 nM | 16.5 nM | 659 nM
AAAGUACAUGAGGAUCACCCAUGUCCAAACAAGUAAGGAUAUACGAAAACAAAACAAAAUGUAGAAGGUACAACAA [Same State 1 #2] (puzzle: Same State 1) |  |  |  | 18.1 nM | 17.9 nM | 26.4 nM
GCCAACUCAUGAGGAUAUGGCACCUUAUUGGUGCCAGAAGGCAUGUCUAUUGACAUGAGGAUCACCCAUGUAUUAUUGUUGGCA [Fiskers NG1ss - 24] (Eterna round: R96, puzzle: Same State NG 1) | 80 nM | 717 nM | 893 nM |  |  | 
UGGUACAUGGGAGGAUAUGGAGUGAUGACAUGAGGAUCACCCAUGUUAUAAAUGCCGAGAGGCAACUAGAAGGCCCAUGUACCU [JL SSNG1 3.95] (Eterna round: R96, puzzle: Same State NG 2) | 23.2 nM | 149 nM | 149 nM |  |  | 
AGAUCAUGACGAGGAUAUGCCACAUGAGGAUCACCCAUGUAUGUGGUAGGACGGAAACGUCCAAAGCAGAAGGCGUCGUGGUCA [Mat - Same State NG 2 - JL mod - D35] (Eterna round: R96, puzzle: Same State NG 2) | 23.1 nM | 44.8 nM | 41.7 nM |  |  | 
UGCCUGAGUCGAGGAUAUUAUGGAUCCUUUAAUACAUGAGGAUCACCCAUGUAAUUAAUUAUACAUGAGAAGGUGACUCAGGCA [SSNG2/11-B2] (Eterna round: R96, puzzle: Same State NG 2) | 39 nM | 126 nM | 289 nM |  |  | 
GGAGAACAUGAGGAUCACCCAUGUGGAUGGGCGCUAGGAUAUGCGGGAGGGUGAAGAGAAGCAGAAGGAGUGGAUA [JR_SS1_Sub035] (puzzle: Same State 1) |  |  |  |  | 56.7 nM | 
AUGCCAAAUCGAGGAUAUGGAGCCUUAUUGGCUCCAGAAGGUGAGACAUGAGGAUCACCCAUGUGGCAGUGGUCUAAUGACCAC [Fiskers NG1ss - 32] (Eterna round: R96, puzzle: Same State NG 1) | 174 nM | 270 nM | 581 nM |  |  | 
GGAAAGAGGUUAGGAUAUGCAUGGCUGGGACAUGAGGAUCACCCAUGUAAUAGAAGAAAUCUACAGUAGAAGGGACAAGGAAGG [AK SSNG2-V2-8] (Eterna round: R96, puzzle: Same State NG 2) | 759 nM | 262 nM | 224 nM |  |  | 
AUUAAACAUGAGGAUCACCCAUGUCAACAAAGUCGAGGAUAUGGGCAAAUAUUAUAAUAACCAGAAGGCGAAUAAU [salish99_ss1_r3_082] (puzzle: Same State 1) |  |  |  | 27.4 nM | 212 nM | 149 nM
CGGCGCUGUCGAGAGGAUAUGCGGUGACGGACAUGAGGAUCACCCAUGUUAGCGAUAGCGUUACGGUAGAAGGCUCUACAGUCGC [Soteed Omei mod 10] (puzzle: Same State 2) |  |  |  |  | 49.2 nM | 
GAGGGCGAAAGCAACAUGAGGAUCACCCAUGUCCUCGGAGGGCAGGAUAUCCGGCGGUAGCCGAAGGAGAAGGGUCGAAAAGAA [AK SSNG3-V2-34] (Eterna round: R96, puzzle: Same State NG 3) | 34.8 nM | 292 nM | 61.1 nM |  |  | 
GUAGCAUACCGAGGAUAUUCAUAUUAUACAUGAGGAUCACCCAUGUGGCCACAUUAGUGGCCUUGGGAGAAGGCGGAAUGCUAC [Xeonanis - 20 Mod37] (Eterna round: R96, puzzle: Same State NG 2) | 99.2 nM | 290 nM | 669 nM |  |  | 
AUACAUGAGGAUCACCCAUGUAAUUAAUUAAUUAAUAAGAUCAAGGAUAUCAGCUCGAAUAGAGCUGAGAAGGUGAUCACAUGU [SSNG3/21-D1] (Eterna round: R96, puzzle: Same State NG 3) |  | 177 nM |  |  |  | 
